From US20030108992A1 (US Dept. of Health and Human Services, published 2003) come the findings set out here.

The target of this assay is T1, p80 TNFR (endogenous) (UniProt P20333 23-461, limits assumed).
T1 construct: whole, on cells; also called TNFR2; p75
T1 sequence (looked up): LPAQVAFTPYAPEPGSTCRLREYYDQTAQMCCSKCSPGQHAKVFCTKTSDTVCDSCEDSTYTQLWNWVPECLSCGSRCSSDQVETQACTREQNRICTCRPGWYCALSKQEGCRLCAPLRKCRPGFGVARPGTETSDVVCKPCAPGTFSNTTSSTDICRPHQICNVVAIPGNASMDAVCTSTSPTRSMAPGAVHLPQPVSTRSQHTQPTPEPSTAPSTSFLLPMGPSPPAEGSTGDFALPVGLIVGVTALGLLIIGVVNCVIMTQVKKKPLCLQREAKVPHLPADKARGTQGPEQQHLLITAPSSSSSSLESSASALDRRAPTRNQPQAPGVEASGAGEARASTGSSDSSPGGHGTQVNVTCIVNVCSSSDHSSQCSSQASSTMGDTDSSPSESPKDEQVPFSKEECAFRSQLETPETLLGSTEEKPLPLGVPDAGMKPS
The assay is described as follows: DTSSP crosslinking of H9 cells, anti-p60 immunoprecipitation, Western blot. On the procedure:
H9 lymphoma cells were washed and resuspended in PBS. […] Cells were then treated with 2 mM of the crosslinker DTSSP (Pierce) for 30 minutes and the reaction was quenched with 20 mM Tris.Cl [pH 7.5] for 15 minutes on ice. The cells were lysed in 150 mM NaCl, 20 mM Tris.Cl [pH 7.5], 1 mM EDTA, 30 mM NaF, 2 mM b-glycerophosphate and 1 mM sodium orthovanadate with protease inhibitors added (Boehringer Mannheim). […] Densitometry was performed with a Kodak Image Station 440.

B1: p60 TNFR (endogenous) (receptor, UniProt P19438 30-455, looked up)
chain: LVPHLGDREKRDSVCPQGKYIHPQNNSICCTKCHKGTYLYNDCPGPGQDTDCRECESGSFTASENHLRHCLSCSKCRKEMGQVEISSCTVDRDTVCGCRKNQYRHYWSENLFQCFNCSLCLNGTVHLSCQEKQNTVCTCHAGFFLRENECVSCSNCKKSLECTKLCLPQIENVKGTEDSGTTVLLPLVIFFGLCLLSLLFIGLMYRYQRWKSKLYSIVCGKSTPEKEGELEGTTTKPLAPNPSFSPTPGFTPTLGFSPVPSSTFTSSSTYTPGDCPNFAAPRREVAPPYQGADPILATALASDPIPNPLQKWEDSAHKPQSLDTDDPATLYAVVENVPPLRWKEFVRRLGLSDHEIDRLELQNGRCLREAQYSMLATWRRRTPRREATLELLGRVLRDMDLLGCLEDIEEALCGPAALPPAPSLLR
notes: whole, on cells; also called endogenous p60 receptor; TNFR1
Turning to B1, the binding result is listed as “no binding”.
